Data taken from PMC11167044.

Target: PKM2 in SW480 cells (human (endogenous in SW480)) (UniProt P14618)
Assay: cross-linking; PKM2 cross-linked in SW480 cells expressing MYG1 variants, following ref. 37; SDS-PAGE and western blot

PKM2 in SW480 cells, P14618 1-531 (enzyme; other documents disagree on this pair), sequence (P14618 whole entry): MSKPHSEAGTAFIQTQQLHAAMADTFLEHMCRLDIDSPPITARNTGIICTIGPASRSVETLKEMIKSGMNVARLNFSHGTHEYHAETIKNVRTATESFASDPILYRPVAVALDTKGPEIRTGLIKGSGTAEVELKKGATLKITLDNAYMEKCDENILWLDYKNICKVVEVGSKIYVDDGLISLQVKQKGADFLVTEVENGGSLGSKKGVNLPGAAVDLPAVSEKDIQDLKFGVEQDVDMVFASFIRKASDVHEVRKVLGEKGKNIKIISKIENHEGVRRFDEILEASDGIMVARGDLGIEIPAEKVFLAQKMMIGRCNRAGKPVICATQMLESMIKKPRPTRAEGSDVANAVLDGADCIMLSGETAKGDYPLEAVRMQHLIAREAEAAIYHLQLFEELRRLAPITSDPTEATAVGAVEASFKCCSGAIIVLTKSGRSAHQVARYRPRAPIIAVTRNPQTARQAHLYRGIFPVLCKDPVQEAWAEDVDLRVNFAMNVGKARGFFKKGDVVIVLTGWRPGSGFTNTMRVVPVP

With “PKM2 in SW480 cells, P14618 1-531 (enzyme; other documents disagree on this pair)” the stoichiometry N was 2.
